Test results from patent US20220033501A1 (SHANGHAI PHARMAEXPLORER, published 2022).
Positions count from the first letter of the chain named.

T1: human TIM-3, full length, on cells (human, UniProt Q8TDQ0 22-301)
T1 construct: Also used here for native TIM-3 on PBMC in the functional rows; also called CHOK1-hTIM-3; HEK293-h TIM-3
T1 sequence: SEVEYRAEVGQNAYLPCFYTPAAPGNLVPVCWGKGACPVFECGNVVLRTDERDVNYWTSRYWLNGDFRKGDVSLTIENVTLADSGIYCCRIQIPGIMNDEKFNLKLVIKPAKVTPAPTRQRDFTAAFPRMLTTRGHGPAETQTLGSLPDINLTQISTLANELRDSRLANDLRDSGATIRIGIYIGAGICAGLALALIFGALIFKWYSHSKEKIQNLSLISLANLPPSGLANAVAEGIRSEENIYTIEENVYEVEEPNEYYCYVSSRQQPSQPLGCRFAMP

T2: human TIM-3 extracellular domain protein with hFc tag (hTIM-3-hFc) (human, UniProt Q8TDQ0 22-200)
T2 construct: not shown: human IgG Fc fragment (hFc) of the pCpC vector
T2 sequence: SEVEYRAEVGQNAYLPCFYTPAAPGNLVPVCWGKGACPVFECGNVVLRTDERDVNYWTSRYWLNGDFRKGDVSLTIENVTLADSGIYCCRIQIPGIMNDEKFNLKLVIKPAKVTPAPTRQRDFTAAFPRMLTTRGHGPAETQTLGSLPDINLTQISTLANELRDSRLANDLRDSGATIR

B1: 18D2H2 (TIM-3 antibody purified from hybridoma, chimeric antibody of Example 2) (antibody, V domains shown)
VH: EVQLVESGGDLVQPGGSLRLSCAASGFTFSTYWMTWVRQAPGRGLEWVANIKQDGSAKYYVDSVKGRFTLSRDDAKNSLYLQMNSLRAEDTAVYYCARGSNWFDYWGQGTLVTVSS
VL: ETVMTQSPATLSVSPGERATLSCRANQNVYSNLAWYQQKPGQAPRLLIYDASTRATGFPARFSGSGSGTEFTLTISSLQSEDFAVYYCQQYNNWPLTFGGGTKVEIK
notes: From hybridoma of Harbour H2L2 transgenic mice: human variable regions, rat constant regions
B2: 57F4E5 (TIM-3 antibody purified from hybridoma, chimeric antibody of Example 2) (antibody, V domains shown)
VH: EVQLVESGGGLVQPGGSLRLSCAASGFTFSSYWMSWVRQAPGKGLEWVANIKQDGSEKYYVDSVKGRFTISRDSAKNSLYLQMNSLRAEDTAMYFCARDSNFFDYWGQGTLVTVSS
VL: B1 VL with N26S, N28S, Y30S, Q38R, D50F, A51S, F58I
notes: as for B1
B3: 134H3G6 (TIM-3 antibody purified from hybridoma, chimeric antibody of Example 2) (antibody, V domains shown)
VH: EVQLVESGGGLVQPGGSLRLSCAASGFTFSNSWMTWVRQAPGKGLEWVANIKQAGTEKYYVDSVKGRFTISRDNAKNSLYLQMNSLRAEDTAVYYCNSGSNYFDYWGQGTLVTVSS
VL: B1 VL with T2I, N26R, V29F, D50G, F58I
notes: as for B1
B4: 215A8F2 (TIM-3 antibody purified from hybridoma, chimeric antibody of Example 2) (antibody, V domains shown)
VH: QVQLQQWGAGLLKPSETLSLTCTVYGGSFSGYYWNWIRQPPGKGLEWLGEINHSGSTNYNPSLKRRVTISVDTSKNQFSLKLSSVTAADTAVYYCARVYYYGPFDFWGQGTLVTVSS
VL: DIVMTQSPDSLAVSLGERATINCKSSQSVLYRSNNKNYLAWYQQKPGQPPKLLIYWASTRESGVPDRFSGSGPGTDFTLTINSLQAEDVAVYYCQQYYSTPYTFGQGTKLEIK
notes: as for B1
B5: 7A4F10 (TIM-3 antibody purified from hybridoma, chimeric antibody of Example 2) (antibody, V domains shown)
VH: EVQLLESGGGLVQPGGSLRLSCAASGFTFRTHLISWVRQAPGKGLEWVAAITGSGGSTYYADSVKGRFIISRDNSKNTLFLQMNSLRAEDTAVYYCAKDGGSGSYDDFWGQGTLVTVSS
VL: ETVLTQSPVTLSLSPGERATLSCRASQSVGSYLAWYQQKPGQAPRLLIYDASNRATGIPARFSGSGSGTDFTLTISSLEPEDFAVYYCQQRSNWPPTFGQGTKVEIK
notes: as for B1
B6: 134H3G6 fully human TIM-3 antibody (human IgG4, kappa) (antibody, V domains shown)
VH: B3 VH
VL: B1 VL with T2I, N26R, V29F, D50G, F58I
B7: 215A8F2 fully human TIM-3 antibody (human IgG4, kappa) (antibody, V domains shown)
VH: B4 VH
VL: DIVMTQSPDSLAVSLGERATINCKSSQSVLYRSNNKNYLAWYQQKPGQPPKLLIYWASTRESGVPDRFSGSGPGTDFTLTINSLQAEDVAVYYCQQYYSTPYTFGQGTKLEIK
B8: 7A4F10 fully human TIM-3 antibody (human IgG4, kappa) (antibody, V domains shown)
VH: B5 VH
VL: B5 VL
B9: 18D2H2 fully human TIM-3 antibody (human IgG4, kappa) (antibody, V domains shown)
VH: B1 VH
VL: B1 VL

The binders below were run against T1, human TIM-3, full length, on cells (assay: FACS, CHOK1-hTIM-3 cells; antibody 8 nM).
Excerpt: (§1) The pIRES plasmid containing the full-length nucleotide sequence encoding human TIM-3 as described in Example 1 was transfected into CHOK1 cell line to obtain a CHOK1 stable cell line containing human TIM-3 (herein referred to as CHOK1-hTIM-3 stable cell line). The pIRES plasmid containing the full-length gene of monkey TIM-3 was transfected into CHOK1 cell line to construct a CHOK1 stable cell line containing monkey TIM-3 (herein referred to as CHOK1-cTIM-3 stable cell line). The CHOK1-hTIM-3 stable cell line and CHOK1-cTIM-3 stable cell line were expanded to a confluence of 90% in a T-75 cell culture flask. The medium was aspirated, and the cells were washed with HBSS (Hanks' Balanced Salt Solution) 1-2 times, and then treated with an enzyme-free cell dissociation solution (Versene solution: Life technology) and the cells were collected. The cells were washed with HBSS buffer for 1-2 times. After counted, the cells were diluted with HBSS to 1-2×10⁶ cells per ml, added with 1% goat serum blocking solution, incubated on ice for 20-30 minutes, and then washed with HBSS by centrifugation 2 times. The collected cells were suspended in the FACS buffer (HBSS+1% BSA) to 2×10⁶ cells/ml, added as 100 microliters per well to a 96-well FACS reaction plate, added with 100 microliters per well of the antibody sample to be tested, incubated on ice for 1-2 hours. The plate was washed twice with the FACS buffer by centrifugation, added with 100 microliters of fluorescent (Alexa 488)-labeled secondary antibodies per well, and incubated on ice for 0.5-1.0 hours. The plate was washed 2-3 times with FACS buffer by centrifugation, added with 100 μl fixative solution (4% Paraformaldehyde) per well to suspend the cells. 5-10 minutes later, it was washed 1-2 times with FACS buffer by centrifugation. The cells were suspended with 100 microliters of FACS buffer, FACS (FACSCalibur, BD) was used for detection and the results were analyzed. The results are shown in FIGS. 7 and 8, Tables 7 and 8, wherein the IgG control is rat IgG, and the data in the table are the average fluorescence intensity values of the cell populations measured by MFI.

In order of rising Mean fluorescence intensity:
1. B5  56.2
2. B1  107
3. B3  139
4. B2  478
5. B4  608

The binders below were run against T2, human TIM-3 extracellular domain … (assay: FACS, blocking of hTIM-3-hFc binding to phosphatidylserine on apoptotic Jurkat cells, 0 nM antibody).
Experimental: (§2) Jurkat cells were treated with 1 μM staurosporine at 37° C. for 2 hours to induce apoptosis. The presence of phosphatidylserine was detected by Annexin V-FITC cell apoptosis detection kit. […] The cells were washed 1-2 times with PBS buffer, and after cell counting, the cells were diluted to 1-2×10⁶ cells per milliliter with binding buffer, and added to a 96-well FACS reaction plate at 100 microliters per well. The antibody sample to be tested and 2 μg/ml hTIM-3-hFc protein were prepared with binding buffer, and mixed equally in volume. The mixture was incubated at room temperature for 30 minutes, then the FACS reaction plate incubated with apoptotic cells was centrifuged to discard the supernatant, and the above mixture was added to the apoptotic cells at 100 microliters per well and incubated at room temperature for 1 hour. The plate was washed twice with the binding buffer by centrifugation, added with 100 microliters of fluorescent (Alexa 488)-labeled secondary antibodies per well, and incubated for half an hour. The plate was washed 2-3 times with the binding buffer by centrifugation, added with 100 microliters of PBS per well to suspend cells, and detected using FACS (FACS Calibur, BD) and the results were analyzed. The results are shown in Table 15 and FIG. 15, wherein the IgG control is human IgG, and the data in the table is the inhibition rate (%).

In order of rising “Inhibition ratio (%)” value:
1. B8  0.5%
2. B9  1.4%
3. B7  1.6%
4. B6  5.5%

The binders below were run against T1, human TIM-3, full length, on cells (assay: FACS, CHOK1-hTIM-3 cells; antibody 200 nM).
Excerpt: as §1

In order of rising Mean fluorescence intensity:
1. B5  145
2. B1  212
3. B3  261
4. B2  485
5. B4  613

Each binder was assayed against T2, human TIM-3 extracellular domain … (assay: FACS, blocking of hTIM-3-hFc binding to phosphatidylserine on apoptotic Jurkat cells, 2.469 nM antibody).
Experimental: as §2

In order of rising “Inhibition ratio (%)” value:
1. B7  5.8%
2. B6  10.9%
3. B8  23.7%
4. B9  27.4%

The binders below were run against T1, human TIM-3, full length, on cells (assay: FACS, CHOK1-hTIM-3 cells; antibody 0 nM (blank)).
Excerpt: as §1

In order of rising Mean fluorescence intensity:
1. B1  2.9
2. B2  2.9
3. B5  2.9
4. B3  3
5. B4  3

These binders were tested against T2, human TIM-3 extracellular domain … (assay: FACS, blocking of hTIM-3-hFc binding to phosphatidylserine on apoptotic Jurkat cells, 22.222 nM antibody).
Experimental: as §2

In order of rising “Inhibition ratio (%)” value:
1. B6  58.4%
2. B7  61.8%
3. B8  62.1%
4. B9  63.9%

These binders were tested against T2, human TIM-3 extracellular domain … (assay: FACS, blocking of hTIM-3-hFc binding to phosphatidylserine on apoptotic Jurkat cells, 66.667 nM antibody).
Experimental: as §2

In order of falling “Inhibition ratio (%)” value:
1. B9  62.3%
2. B8  60.5%
3. B7  57.2%
4. B6  52.3%

These binders were tested against T1, human TIM-3, full length, on cells (assay: FACS, CHOK1-hTIM-3 cells; antibody 0.064 nM).
Excerpt: as §1

In order of rising Mean fluorescence intensity:
1. B5  4.3
2. B1  6.6
3. B3  8.2
4. B4  18.7
5. B2  58.1

What follows are binders tested against T2, human TIM-3 extracellular domain … (assay: FACS, blocking of hTIM-3-hFc binding to phosphatidylserine on apoptotic Jurkat cells, 0.823 nM antibody).
Experimental: as §2

In order of rising “Inhibition ratio (%)” value:
1. B7  -4.4%
2. B9  3.9%
3. B8  5.7%
4. B6  6.1%

Each binder was assayed against T1, human TIM-3, full length, on cells (assay: FACS, CHOK1-hTIM-3 cells; antibody 0.013 nM).
Excerpt: as §1

In order of rising Mean fluorescence intensity:
1. B5  3.3
2. B1  4.2
3. B3  4.7
4. B4  8.6
5. B2  21.2
